Results on one molecule are retold here after publication PMC10842940, “Establishment of dsDNA-dsDNA interactions by the condensin complex” (Molecular cell, 2023).

For experiment [1], the target named is T1, Cut14^Smc2 (fission yeast condensin SMC subunit) (S. pombe, UniProt P41003 1-1172).
T1 construct: Cut14 (Smc2), S. pombe condensin SMC subunit; cDNA cloned into an S. cerevisiae expression vector; The Pk tag is used for the condensin immunoprecipitation in the DNA assays; also called Cut14-3xPk; source: S. cerevisiae (w303, pep4 deleted), co-overexpressed with the other four condensin subunits from GAL1-10 promoters; in cell extract, and purified as the complex (IgG-agarose, 3C protease …)
T1 sequence (looked up): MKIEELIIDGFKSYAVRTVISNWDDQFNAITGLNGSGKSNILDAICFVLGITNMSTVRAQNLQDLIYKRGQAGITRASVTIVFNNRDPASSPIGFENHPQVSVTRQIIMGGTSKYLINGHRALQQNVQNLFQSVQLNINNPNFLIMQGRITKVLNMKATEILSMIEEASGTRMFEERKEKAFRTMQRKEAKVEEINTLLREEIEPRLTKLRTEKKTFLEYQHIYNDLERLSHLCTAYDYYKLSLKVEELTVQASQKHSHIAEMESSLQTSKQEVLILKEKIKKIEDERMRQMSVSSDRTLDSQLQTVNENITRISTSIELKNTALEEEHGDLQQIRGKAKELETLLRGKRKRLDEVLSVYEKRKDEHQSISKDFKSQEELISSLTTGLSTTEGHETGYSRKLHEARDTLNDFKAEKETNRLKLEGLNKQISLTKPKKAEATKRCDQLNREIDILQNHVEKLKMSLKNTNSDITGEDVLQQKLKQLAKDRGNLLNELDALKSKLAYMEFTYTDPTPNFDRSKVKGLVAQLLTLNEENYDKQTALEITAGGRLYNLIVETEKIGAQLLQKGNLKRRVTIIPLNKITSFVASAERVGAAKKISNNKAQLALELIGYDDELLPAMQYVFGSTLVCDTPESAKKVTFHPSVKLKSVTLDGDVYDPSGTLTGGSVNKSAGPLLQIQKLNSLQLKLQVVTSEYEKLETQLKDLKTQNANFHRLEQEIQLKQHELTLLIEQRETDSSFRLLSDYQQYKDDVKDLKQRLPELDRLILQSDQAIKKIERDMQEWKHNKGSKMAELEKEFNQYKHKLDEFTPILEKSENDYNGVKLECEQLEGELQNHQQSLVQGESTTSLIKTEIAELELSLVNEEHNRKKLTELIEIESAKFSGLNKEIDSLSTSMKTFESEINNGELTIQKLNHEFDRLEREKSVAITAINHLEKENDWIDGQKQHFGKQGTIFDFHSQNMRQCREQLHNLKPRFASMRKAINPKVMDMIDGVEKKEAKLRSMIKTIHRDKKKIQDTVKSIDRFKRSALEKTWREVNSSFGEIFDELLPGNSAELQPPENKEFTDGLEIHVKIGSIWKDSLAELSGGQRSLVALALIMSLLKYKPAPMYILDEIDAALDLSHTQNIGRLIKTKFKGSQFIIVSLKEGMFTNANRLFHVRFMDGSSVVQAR
As to the kind of experiment: cross-linking; sulfo-SDA cross-link mass spectrometry (CLMS) of the purified five-subunit condensin complex with equimolar 124 bp linear dsDNA and 0.5 mM ADP·BeF3 (DNA-gripping state); CL buffer, 30°C 30 min, UV 365 nm on ice; 1% FDR at residue-pair level. Conditions: both partners purified.

Experiment [2] addresses T2, Cut3^Smc4 (fission yeast condensin SMC subunit) (S. pombe, UniProt P41004 1-1324).
T2 construct: Cut3 (Smc4), S. pombe condensin SMC subunit; cDNA cloned into an S. cerevisiae expression vector; source: S. cerevisiae (w303, pep4 deleted), co-overexpressed with the other four condensin subunits from GAL1-10 promoters; in cell extract, and purified as the complex (IgG-agarose, 3C protease elution, heparin, Superose 6)
T2 sequence (looked up): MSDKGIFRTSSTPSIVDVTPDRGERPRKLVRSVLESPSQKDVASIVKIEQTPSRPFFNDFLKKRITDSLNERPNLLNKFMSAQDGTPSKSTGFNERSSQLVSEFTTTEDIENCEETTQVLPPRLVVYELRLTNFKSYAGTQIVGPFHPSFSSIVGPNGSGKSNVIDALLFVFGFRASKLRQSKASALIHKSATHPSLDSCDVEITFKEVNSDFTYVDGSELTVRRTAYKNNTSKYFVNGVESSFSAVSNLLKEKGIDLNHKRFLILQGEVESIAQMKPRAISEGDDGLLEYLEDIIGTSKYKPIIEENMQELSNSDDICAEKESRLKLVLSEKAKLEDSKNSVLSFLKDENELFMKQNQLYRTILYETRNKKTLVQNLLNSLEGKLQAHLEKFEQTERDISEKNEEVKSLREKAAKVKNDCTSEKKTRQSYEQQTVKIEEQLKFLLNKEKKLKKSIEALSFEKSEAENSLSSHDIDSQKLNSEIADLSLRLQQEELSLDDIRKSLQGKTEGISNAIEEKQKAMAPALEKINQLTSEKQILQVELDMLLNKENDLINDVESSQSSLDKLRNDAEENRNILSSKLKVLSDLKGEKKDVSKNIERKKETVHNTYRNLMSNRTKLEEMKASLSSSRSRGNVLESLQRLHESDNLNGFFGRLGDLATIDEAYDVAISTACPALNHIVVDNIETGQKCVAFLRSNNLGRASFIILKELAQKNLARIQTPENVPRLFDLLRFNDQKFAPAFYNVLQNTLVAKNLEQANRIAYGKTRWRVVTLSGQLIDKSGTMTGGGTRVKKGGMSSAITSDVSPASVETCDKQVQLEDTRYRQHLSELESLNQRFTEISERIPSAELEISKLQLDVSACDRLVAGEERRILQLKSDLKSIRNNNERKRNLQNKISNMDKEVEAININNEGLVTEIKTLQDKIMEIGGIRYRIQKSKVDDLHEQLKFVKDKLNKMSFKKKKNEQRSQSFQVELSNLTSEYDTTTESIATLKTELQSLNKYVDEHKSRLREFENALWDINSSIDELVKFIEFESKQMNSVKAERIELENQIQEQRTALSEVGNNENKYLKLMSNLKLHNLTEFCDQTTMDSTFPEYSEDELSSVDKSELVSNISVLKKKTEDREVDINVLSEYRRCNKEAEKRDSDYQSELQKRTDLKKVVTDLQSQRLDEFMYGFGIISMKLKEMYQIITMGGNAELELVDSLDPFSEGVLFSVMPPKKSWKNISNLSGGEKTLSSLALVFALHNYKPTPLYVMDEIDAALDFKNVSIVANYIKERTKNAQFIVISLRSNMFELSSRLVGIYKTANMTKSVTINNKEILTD
The experiment is described as above. Conditions: both partners purified.

B1: Cnd1^Ycs4 (fission yeast condensin HEAT-repeat subunit) (natural protein, S. pombe, UniProt O94679 1-1158, looked up)
chain: MSLDLLSRLKKYIHDEENSDLDSIYAECENAGLTAVVNDVIDTLLLGTSSCFDEDCLEKLFAICSHFADLSSSVRNKVYDLLTSNISSESAILEDMISANATDFTVPQTNLETTGIAFQLTVNSLSSSNQLSVIRSSTNTVKGRKKNPTTNSNWNGISHVNALLDAIITLFQKKLSRVWTTSSERDMFLSLFLKPIYTLMESEINIKNASFRSRLFNIIGLAVQFHNHTTAAETNIIQNLQYFEHLSEYAADLVHIVTVQFNSVTLAEGIIRTLCSLEFNDNDVKGPKQVALFLVRLSSLIPNLCLKQLTQLVKLLDSESYTLRCAIIEVLANVVIDQIHDEAQNEMSESVPATVQSLMDLLSERLLDISPYCRTKVLHVFIKIFDLPIKYPRKRQEIAELVIRCLQDRSSHVRRNAIKLFSKLLTTHPFSVMHNGLLTRNIWEKGLSIIEEQLNSLQPKQQEKVVDSELEVDENLLEDATMIQDDESHEGESHLENSLSEYVDSVPAEEIVKVNLTKRFYLEALQYIDIVEAGAKIISQLLFAKNKSEVIESMDFFVFCNSFGISSSKLYIKKMIHLIWVKGTSDEGNNIQNHVLSCYKTLFFEPPPNSGTNEAANYIARNLISLTYDASLAELTSLEQMLCILMKDGYFSHLVITKLWQVYSYQKKDISRTQRRGSIIVIGMLALGNTDVVMQGLDHLIQIGLGPPGLEDLVLARYTCIAIKRIGKDASGSSNINFPNSHTLCQKLCMLLLRPSFSEEWFGLEEQAIEAIYAVAKHPDELCTNIILLLTKQLFKPSNHENTTSNDDHAMDEDLDDSPEEETLKDEEEIGIRLAHLIFLVGHVAIKQLVYIEYCEAEFKRRKADAERLAVQNSNNPINGQETSEYDLITGTSEDDFSEAMTFIRERELLYGENSLLSRFAPLVVELCSNHKSHNNQSLLLAASLTLSKFMCLSNNFCMEHLPLLITILEKCDNPIIRNNLVIGLADLTVCFNHFIDEISEYLYRRLMDEESSVKKTCFMTLAFLILAGQIKVKGQLGIMARSLEDEDARISDLARMFFTDFAAKDNSVYNNFIDIFSVLSRSAEEQDEDDAKFKRIIRFLTSFIEKERHTKQLAERLAARLDRCKTQRQWDHVVYALSLLPHKADNIQKLIDDGYHE
notes: Cnd1 (Ycs4), S. pombe condensin HEAT-repeat subunit; cDNA cloned into an S. cerevisiae expression vector; source: S. cerevisiae (w303, pep4 deleted), co-overexpressed with the other four condensin subunits from GAL1-10 promoters; in cell extract, and purified as the complex (IgG-agarose, 3C protease elution, heparin, Superose 6)
Take B1: the binding result in experiment [1] and in experiment [2] was “binds” in each case.
